Protein production data for 21 sequences are collected here from a protein production outcome set (Wang et al. 2014).
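Also: failed if final PepcDB status was selected cloned or expressed and not failed if soluble or beyond.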

A short description of the data set: label from the status in PepcDB records.
Turning to “MLNVIHALFFRELKTRFGKNRYLGYIWVVGEPMSVVLLVTIIGTVIREYHHQVMPEGISIFMFLISGIMPFFMFRSIVTQLMNGIGANLSLFAYKPVKPIHVFIARTLLEFCIYFVIFITVLFFAGWFFRLDVFPVHLLGVLFCIFLLICSAFALGICFAIVWHFVESLRTLLAYFSIVFYWSSGIIFPTWLTPRPLLDIFYYNPLLHIFELLRFNFFENYPLQDEYSYFYAIFWILLVLFIGLFIYYYNRQALTAAKKE”, the protein production result is recorded as “failed”.
The same measure for “MLPARLPFRLLSLFLRGSAPTAARHGLREPLLERRCAAASSFQHSSSLGRELPYDPVDTEGFGEGGDMQERFLFPEYILDPEPQPTREKQLQELQQQQEEEERQRQQRREERRQQNLRARSREHPVVGHPDPALPPSGVNCSGCGAELHCQDAGVPGYLPREKFLRTAEADGGLARTVCQRCWLLSHHRRALRLQVSREQYLELVSAALRRPGPSLVLYMVDLLDLPDALLPDLPALVGPKQLIVLGNKVDLLPQDAPGYRQRLRERLWEDCARAGLLLAPGHQGPQRPVKDEPQDGENPNPPNWSRTVVRDVRLISAKTGYGVEELISALQRSWRYRGDVYLVGATNAGKSTLFNTLLESDYCTAKGSEAIDRATISPWPGTTLNLLKFPICNPTPYRMFKRHQRLKKDSTQAEEDLSEQEQNQLNVLKKHGYVVGRVGRTFLYSEEQKDNIPFEFDADSLAFDMENDPVMGTHKSTKQVELTAQDVKDAHWFYDTPGITKENCILNLLTEKEVNIVLPTQSIVPRTFVLKPGMVLFLGAIGRIDFLQGNQSAWFTVVASNILPVHITSLDRADALYQKHAGHTLLQIPMGGKERMAGFPPLVAEDIMLKEGLGASEAVADIKFSSAGWVSVTPNFKDRLHLRGYTPEGTVLTVRPPLLPYIVNIKGQRIKKSVAYKTKKPPSLMYNVRKKKGKINV”: “failed”.
Regarding “MLPGLKYIDRIGVDDVLVWLRKGIVWIVLAIVLCVGGALTYASMTPPRYKAYTDIVVNPSNLNVVNDGVFSPNQQRDTQILEVESKLRTITSRNVLARVVDELKLDQDPEFVSPPPLARLKAMFSSKPDDGDNRVGALRSLGDRVTAERDPRSFVVTLSVWTNDAEKSVAVSKAIVKAFESELFQTNSDSSQRVVDDLKKRLEEMRENVTIAEKRVADFRRENGLQENNGQLVSNLASGELNAQVLATQQRLIQEESRLKQMEAAIAQNRTQSDAIFDSQTMNTIRAQYSTLQQQIGAMTLTYGARHPRLATAGAERAMLERGMADEARRILQAAKINVAEARSSLDALRLKAVAERANVFTDNDAQVRLRDLDRDARSAAAIYETYLTRSRQLAEQQSIDSTNVRVISQPVAPNSRSWPPGKLTFLIAGGMGGLFLGLAIAVALGLWGYLRRDDHAEAAARYA”, the protein production result is on record as “failed”.
Consider “MLPHYKQQAVIDSGLAAVGFRPENQRIYPNGSLAAHILGAVDIDNFGIAGIEKWIDANWLADLRGAGLALKGRDLQPVELSIDLRVQYAMEQELGKAVKKFGAAAGAGLLLDVTNGEILALASYPAFDPNNPVDAFKPDRINRVTAGVFEMGSTFKALTTAMALESGRFDLESVVDASRPLSFGRQRIHDYRGKYRPLTVPEAFIHSSNIVMAKMAMTLGPEALRTFLGRFGVLSQLATELPESAAPLRPSSWSEVTTATVSFGHGIAVTPLQASMAVAALANGGRLIRPTFIKDSPVSERTIAESLLSANTSEAIRHLLRLNAAVGSATKADVPGYVIGGKTGTAEKVVQGRYSKVLNVTSFMGIVPADNPRYLLLTLLDEPRGLAETYGNRTSGWNAVPLGGALLHRILPMLLKPVFPSPSSAEAVPVATGEPSVDDSSSD”, for which the protein production entry is “failed”.
The entry for “MLPIAPCARQAVHRQCGGMQNSAAARKLHAVLPRTLDTARIARRSSMFLRRNGLSLCLLALTIFFIGCQVYAGLHAYNDELREQGQPTLLLSAYLHSPHFMSALFENWESEFLQMGMYVLLTVKLRQVGSAESRPLDPTEETVEIKSGPTPWPVRAGGVWRRLYDHSLAIAFAALFLMSFALHLVGSWRLEVTERAQKGLPPITVLEHFTSASFWFESMQNWQSEFLAVFSLVVLTIWLRQKDSPQSKPVEAPHSQTGG” is “failed”.
The entry for “MLPIWFLIVIILKSVEFVITSFFLRDISKEMIFFSDLLGRIIVIIFYVLPIATYISVMFSQFLYLFIIHIFLYIICFMAFVSSALRIKRCIH” is “failed”; for “MLPVSTSVQRSTRQQKITYLYNRNEQSNKKAVTMKTTTTETSIPEEKTTSARIQAYSKSQLAALYLPHIQPASARRTLRSWIAKNTELQAALARSGYTGKAILLTPAQVGLFFRFLGEP” it is “failed”.
With “MLPWNFEGEASEPAQDPTMAPHKRQSYEEELANAITHGVGLVLSLIGWVGLLVLSGLAGGGWDLAASAVFGGTLVFLYATSTLYHSVGTARLKRTLRILDHVAIFLLIAGTYTPFAGVLMREGWGWSVLALVWGIALAGLLFKLFSTHRFHPAATTLYLLMGWLGVLFADPMSAALPLGGLLLIVAGGLAYTIGVLFYGWHSLRYSHAIWHVFVLVGSACHYAAVVLYVL”, the protein production result was “failed”.
The same measure for “MLQIADYIAENYRGKVVEVGIGRFTAVAELLARRGFEVFATDVVERRAPEGCRFYVDDVTKPNLKIYEGASLIYSLRPPPELFSAIVEVSRKVGADCLIKPLYGDYMEARIVNYKGAQFYLIRRENYD”: “failed”; for “MLQPGGTPTKIVCLTQVVTADDLRDDAEYADIMEDMSQEGGKFGNLVNVVIPRPNPDHDPTPGVGKVFLEYADVDGSSKARSGMNGRKFGGNQVVAVYYPEDKYAQGDYED”: “failed”; for “MLQRFYETLSTLRARWTRFTESPMGAWVRTGLRWLFVGGIVAYLAYELTTIGWGEVARALPVTPWFYVLLLLMYGTLPLTEAVLYGTAWGAQYRDLLPVLFRKRVLNNDVLGYSGEAYFYLWARRETNLGTGTVLRTVKDNVVISSVASTSVAFGLLAVFFLTGQIELLRQYLPSEAYTLGAGVAVLIILVSAVVAFRRSILSLPSSLLGLFAAGHVARFVLNNGLQVTQWAVVIPEVSAGTWITLLALYIVIQQVPFVPSRGLVFMSAGVGLSGPLQIPEAPLASMLLAQSLLDRGLNFLVYTGTTAAEAVGDDVEELDDLSIPEEMG”: “failed”.
As for “MLREPGAADRAAFVELLASPEVHTYLGGPRPRAELERELPGTPERWPGSFVVDLDGEMIGQVLLRRTREHCCPVAVGKVDLGYLFLPRAWGLGYAAEACAAALDWLDCVLPGEPVVLNTQTANTGSMRLAAKLGFTEVERFRAWDAEQWLGLRPPLT”, the protein production entry is on record as “failed”.
On to “MLRFMVRSFASLAISSAYSIPIGLSSVTSILDEDTIIERVCYGYLKCNATCSTEIVIVNYSITLNMSDDVVVKLLNDGYFSLDAGAYFGVVPKAIWSRKFQEIDNTVRLATNVLYITESDGTSILVDSGIGNKFDDKFRKIYRVEKQSDIYEYIRLHGDPNSVRMIINSHLHFDHVGHNADFKNAYAYAQADEFKAARYRNYITKANYRLSASQIKNKVEIGGSKRINGFIRVIKTDGHTPGHQVILINAGGRKIMYFGDIVPSTFHLKLPYRTAIDLDPLKTIEFKKNLVKMAIRENYICIFNHDVETPAAILSGDYSDPKYVKVDI”, for which the protein production entry is reported as “failed”.
The same measure for “MLRIIVIGTTGSGKTTFARALAQRLGLPHGEQDAWNHEANWQMAPLGRFRARVDTFTSQPAWVMDGNYGKARDLGWARADTLIWLDFPAWLVYSRLVRRTLWRVLTQQELWNGNRETWRGALLDPEGPLRWFWKTHWRRRQETPALAAEFPHLRLVRLRSPGEARRFLAAVGRGHPTALEHHHHHH”: “failed”; for “MLRLDTRFLPGFPEALSRHGPLLEEARRRLLAKRGEPGSMLGWMDLPEDTETLREVRRYREANPWVEDFVLIGIGGSALGPKALEAAFNESGVRFHYLDHVEPEPILRLLRTLDPRKTLVNAVSKSGSTAETLAGLAVFLKWLKAHLGEDWRRHLVVTTDPKEGPLRAFAEREGLKAFAIPKEVGGRFSALSPVGLLPLAFAGADLDALLMGARKANETALAPLEESLPLKTALLLHLHRHLPVHVFMVYSERLSHLPSWFVQLHDESLGKVDRQGQRVGTTAVPALGPKDQHAQVQLFREGPLDKLLALVIPEAPLEDVEIPEVEGLEAASYLFGKTLFQLLKAEAEATYEALAEAGQRVYALFLPEVSPYAVGWLMQHLMWQTAFLGELWEVNAFDQPGVELGKVLTRKRLAG”: “not failed”.
The same measure for “MLRPAGLWRLCRRPWAARVPAENLGRREVTSGVSPRGSTSPRTLNIFDRDLKRKQKNWAARQPEPTKFDYLKEEVGSRIADRVYDIPRNFPLALDLGCGRGYIAQYLNKETIGKFFQAAIAENALKNSSETEIPTVSVLADEEFLPFKENTFDLVVSSLSLHWVNDLPRALEQIHYILKPDGVFIGAMFGGDTLYELRCSLQLAETEREGGFSPHISPFTAVNDLGHLLGRAGFNTLTVDTDEIQVNYPGMFELMEDLQGMGESNCAWNRKALLHRDTMLAAAAVYREMYRNEDGSVPATYQIYYMIGWKYHESQARPAERGSATVSFGELGKINNLMPPGKKSQ”: “failed”.
On to “MLRQGAKHTACTGRRNDDDRTPKEQSMKIVVIGGTGLIGSNVVNRLRRDGHETVAASPGTGVNTITGEGLAQALDGAQVVVDVANSPSFEDQAVMAFFETSGRTLLAAEAAAGVTHHLALSVVGTDRLADSGYFRAKVAQEALIKASKVPYTILRATQFFEFIESIVNAGADGDTVRLSPALIQPIAADDVSAALADLAVGMPLNGTVEVAGPDRLPLDELARKFLAARGDRRQVVADVHARYFGSELDDRSLVAGDNPRVGSTRLMNWLSRSPAPQ”, for which the protein production entry is “failed”.
The same measure for “MLRQSMNDYFEQPWYLTYADAERLSDLRDETLTLRDEEVTGHVPTEVEYEELQQVNDELAQRIGDMLKVHKEQGAAIDLALVLRDYLASHPRTHHFDLARMVVDQAVRLGYSESDYRAIQPDWTAINDFGAKVQANVIDRYLEHHHHHH”: “not failed”; for “MLRSVYEMTKISKIIDELNNQQADAAWITTPLNVYYFTGYRSEPHERLFALLIKKDGKQVLFCPKMEVEEVKASPFTGEIVGYLDTENPFSLYPQTINKLLIESEHLTVARQKQLISGFNVNSFGDVDLTIKQLR”: “not failed”.
As to “MLSAVRRANLYLNLFGFSKVPLIWLCHPKIIAIDSKHVEVRIPLRRRTKNHLNSMYFGALAVGADVAGGFLAMSKAQEKGEAISLAFKGVKAEFLKRPEADVHFVCNDGHVIDEMLDHTIATGERVNRDVKIIALCPSLHGQEPMAEFALTLSIKKAAQHTKLEHHHHHH”, the protein production result is on record as “not failed”.
On to “MLSERRLKVLRAIVQDYVGTEEPVGSKALTERHNLGVSPATVRNDMAALEDEGFIAQPHTSAGRIPTDKGYRLFVDKLAGVKPMTAPERRAIQNFLEGAVDLDDVVARTVRLLAQLTRQVAVVQYPSLTRSTVRHVELLSLAPARLMLVLITDTGRVEQRMVDCPAPFGEASLADLRARLNSRVAGRRFADVPALVEDLAEPFEAEDRGTVSTVLSTLLETLVEENEERLMIGGTANLTRFGHDFPLVIRPVLEALEEQVVLLKLLGEAKDPGVTVRIGHENAHEGLNSTSVVSVGYGSGGEAVAKLGVVGPTRMDYPGTMGAVRAVARYVGQILAES”, for which the protein production result was “failed”.
